# Test results: EP4725968A1 (Salubris (Chengdu) Biotech Co., Ltd., dated 2024)
# Substitutions are numbered along the chain they refer to.
# T1: GPC3-B peptide
# T1 peptide: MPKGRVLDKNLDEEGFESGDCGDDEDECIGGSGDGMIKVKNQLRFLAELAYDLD
# T2: GPC3-A peptide
# T2 construct: Peptide of the GPC3 antigen
# T2 peptide: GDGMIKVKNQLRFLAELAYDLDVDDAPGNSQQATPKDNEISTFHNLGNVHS
# T3: GPC3-B8
# T3 construct: also called long fragments containing GPC3-B3
# T3 peptide: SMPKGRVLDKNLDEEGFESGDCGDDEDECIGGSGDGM
# T4: GPC3-B3 (human)
# T4 construct: Overlapping peptide of GPC3-B
# T4 peptide: DKNLDEEGFESG
# B1: GC008 (antibody, V domains shown)
# VH: EVQLLESGGGLVQPGGSMRLSCAASEIDFSVYALGWSRQAPGKQRELVATITTSSTTTYADSVKGRFTISRDNAKNTVYLQMNSLKPEDTAVYYCHTLRRTGSGIVPGRIWGQGTPVTVSS
# VL: DIQLTQSPSSLSASVGDRVTITCQASQDIDNSVTWYQQRPGKAPSLLISDASILESGVPSRFSGRGSGTHFTLSITSLQPEDIATYYCQQYENLPITFGQGTRLEIK
# notes: Detected with anti-human IgG-Fc-HRP in the ELISA, so it carried a human Fc
# B2: GC011 (antibody, V domains shown)
# VH: EVQLLESGGGVVQPGRSLRLSCAASGFTFSSYGMHWVRQAPGKGLEWVAVISYDGSNKYYADSVKGRFTISRDNSKNTLYLQMNSLRAEDTAVYYCAKNPSLDYWGQGTTVTVSS
# VL: NIQMTQSPSSLSASVGDRVTITCRASQSITRYLNWYQQKPGKGPKLLIYAASRLQSGVPSRFSGSGSGTDFTLTISSLQPEDFATYYCQQSHSIPRTFGQGTKLEIK
# notes: Detected with anti-human IgG-Fc-HRP
# B3: GC067 (antibody, V domains shown)
# VH: EVQLLESGGGVVQPGRSLRLSCAASGFTFSSYAMHWVRQAPGKGLEWVAVISYDGSNKYYADSVKGRFTISRDNSKNTLYLQMNSLRAEDTAVYYCARRLRGSGMDVWGQGTPVTVSS
# VL: not shown
# notes: as for B2
# B4: GC010 (antibody, V domains shown)
# VH: B3 VH with R99D, L100E, R101S, G102R, S103R, G104K, M105F, V107Y, P113T
# VL: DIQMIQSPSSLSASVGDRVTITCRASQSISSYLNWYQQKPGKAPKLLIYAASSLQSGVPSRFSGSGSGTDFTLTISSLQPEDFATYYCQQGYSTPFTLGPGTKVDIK
# notes: as for B2
# B5: GC035 (antibody, V domains shown)
# VH: B3 VH with Q13R, L100K, R101S, G104S, M105F, V107Y
# VL: DIQLTQSPSSLSASVGDRVTITCRAGQTINNYLHWYQQKPGKAPKLLIFAASSLQSGVPSRFSGSGSGTDFTLTISSLQPEDFATYYCQQSYSPPLTFGGGTRVEIK
# notes: as for B2
# B6: GC90 (antibody, V domains shown)
# VH: QVQLLESGGGLVQPGGSLRVSCAASGFTFNSYAMSWVRQAPGKGLEWVASIKSSGDRVQYADSVKGRFTISRDNSKNTVYLEMNSLRAEDTAIYYCAKPQWSSPQRTFEVWGQGTPVTVSS
# VL: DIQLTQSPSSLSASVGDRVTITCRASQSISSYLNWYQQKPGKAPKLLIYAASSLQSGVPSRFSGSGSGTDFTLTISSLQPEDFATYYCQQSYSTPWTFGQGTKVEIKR
# notes: Human IgG1 / kappa; also called GC90 monoclonal antibody; humanized monoclonal antibody GC90
# B7: GC025 (antibody, V domains shown)
# VH: EVQLLESGGGVVQPGRSLRLSCAASGFTFSSYAMHWVRQAPGKGLEWVAVISYDGSNKYYADSVKGRFTISRDNSKNTLYLQMNSLRAEDTAVYYCARRQRAAIDYWGQGTTVTVSS
# VL: DIQLTQSPSSLSASVGDRVTITCRASQSISSYLSWYQQKPGKAPKLLIYGASSLQSGVPSRFSGSGSGTDFTLTISSLQPEDFATYSCQQSYSTQFTFGPGTKVDIK
# notes: as for B2
# B8: GC139 (antibody, V domains shown)
# VH: EVQLVESGGGLIQPGGSLRLSCAASGFTFSSYAMHWVRQAPGKGLEYVSAISSNGGSTYYADSVKGRFTISRDNSKNTLYLQMSSLRPDDTAVYYCVRGWIRPPPGSFDLWGQGTTVTVSS
# VL: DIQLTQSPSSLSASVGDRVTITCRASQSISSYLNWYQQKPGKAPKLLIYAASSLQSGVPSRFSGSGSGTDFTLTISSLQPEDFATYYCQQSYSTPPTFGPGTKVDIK
# notes: as for B2
# B9: GC037 (antibody, V domains shown)
# VH: B8 VH with V5L, I12V, D62N, D73H, N74P, T78I, Y80F, Q82E, S84N, T116P
# VL: AIRLTQFPSSLSASVGDRVTITCRARQSIDNYLNWYQEKPGKAPKLLIYAASSLQSGVPSRFSGSGSGTEFTLTISSLQPDDFAAYYCQQSYDSPPTFGQGTKVEIK
# notes: as for B2
# B10: GC147 (antibody, V domains shown)
# VH: B8 VH with I12V, D62N, S84G, P88A, D89E, T91M, T116P
# VL: AIRLTQSPSSLSASVGDRVSITCRASQSISTFLNWYQQKPGKAPNLLIYSASTLQSGVPSRFSGSGSGTDFTLTISSLQPEDFATYYCQQSYSSPPTFGQGTKLEIK
# notes: as for B2
# B11: GC053 (antibody, V domains shown)
# VH: B8 VH with V5L, I12V, D62N, S84G
# VL: NIQMTQSPSSLSAFVGDRVTITCRASQSISRYLNWYQHKPGQAPKLLMYAASTLQDEVPSRFSGSGSGTYFTLTISSLEPEDFATYYCQQSYSTPPTFGGGTKVEIK
# notes: as for B2
# B12: hYP7HM (antibody, human IgG1, kappa, L234A L235A, V domains shown)
# VH: EVQLVESGGGLVQPGGSLRLSCAASGFTFNKNAMNWVRQAPGKGLEWVGRIRNKTNNYATYYADSVKGRFTISRDDSKNSLYLQMNSLKTEDTAVYYCVAGNSFAYWGQGTLVTVSA
# VL: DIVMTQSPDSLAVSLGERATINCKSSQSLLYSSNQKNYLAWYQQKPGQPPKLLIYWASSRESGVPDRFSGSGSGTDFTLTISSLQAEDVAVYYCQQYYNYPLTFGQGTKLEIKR
# notes: Control anti-GPC3 antibody; also called control antibody hYP7HM; control anti-GPC3 antibody hYP7HM
# Target: T1, GPC3-B peptide
# Experiment: ELISA, peptide coated at 6 µg/mL
row,binding result,Binder
1,binds,B1
2,binds,B2
3,binds,B3
4,binds,B4
5,binds,B5
6,binds,B6
7,binds,B7
8,binds,B8
9,binds,B9
10,binds,B10
11,binds,B11

# Target: T2, GPC3-A peptide
# Experiment: ELISA, peptide coated at 6 µg/mL
row,binding result,Binder
1,binds,B12

# Target: T3, GPC3-B8
# Experiment: ELISA, overlapping peptide coated at 6 µg/mL
row,binding result,Binder
1,binds,B6

# Target: T4, GPC3-B3
# Experiment: ELISA, overlapping peptide coated at 6 µg/mL
row,binding result,Binder
1,binds,B6

# Target: T5, Mouse GPC3 (ACRO Biosystems, GP3-M52H3) (mouse, UniProt Q8CFZ4 25-558)
# T5 construct: also called mouse Gpc3 protein; mouse GPC3 protein
# Experiment: ELISA, GPC3 protein coated at 6 µg/mL; × indicates no affinity recognition
# T5 sequence (Q8CFZ4 25-558 limits assumed): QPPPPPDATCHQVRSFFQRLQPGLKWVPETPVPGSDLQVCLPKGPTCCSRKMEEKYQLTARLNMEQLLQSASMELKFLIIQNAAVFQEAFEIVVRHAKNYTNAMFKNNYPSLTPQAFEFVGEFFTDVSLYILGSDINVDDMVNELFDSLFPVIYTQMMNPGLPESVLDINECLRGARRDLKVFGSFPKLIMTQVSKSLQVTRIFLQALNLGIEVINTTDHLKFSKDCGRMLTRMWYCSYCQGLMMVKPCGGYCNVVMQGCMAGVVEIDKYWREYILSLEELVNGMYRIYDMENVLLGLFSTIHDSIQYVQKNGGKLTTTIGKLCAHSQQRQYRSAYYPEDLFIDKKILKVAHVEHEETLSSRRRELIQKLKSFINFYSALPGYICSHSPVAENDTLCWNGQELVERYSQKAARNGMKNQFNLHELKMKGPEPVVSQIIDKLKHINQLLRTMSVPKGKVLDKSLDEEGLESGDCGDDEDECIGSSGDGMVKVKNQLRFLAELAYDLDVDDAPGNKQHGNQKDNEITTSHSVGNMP
row,binding result,Binder
1,no binding (tested: 30 nM),B6
